Test results as given in patent US20250333515A1.

Target: biotinylated recombinant human CLL-1 extracellular domain protein, isoform with lysine at amino acid position 244 (human) (UniProt Q5QGZ9)
Experiment: Exp 1 (= Octet, CLL-1-K244 of FIG. 12B); Exp 2: ND

biotinylated recombinant human CLL-1 extracellular domain protein, isoform with lysine at amino acid position 244 (human), sequence (Q5QGZ9 65-265): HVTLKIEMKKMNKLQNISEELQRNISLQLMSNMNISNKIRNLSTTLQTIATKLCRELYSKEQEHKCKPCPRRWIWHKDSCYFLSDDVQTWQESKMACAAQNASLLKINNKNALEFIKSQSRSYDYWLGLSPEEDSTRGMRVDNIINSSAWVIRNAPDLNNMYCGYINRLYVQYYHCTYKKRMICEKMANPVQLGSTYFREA

A Kd of 0.127 nM was found for + Control in this work.
